The record followed here is publication PMC8497992, “Structural and functional characterization explains loss of dNTPase activity of the cancer-specific R366C/H mutant SAMHD1 proteins”.

Some targets named below: SAMHD1 HD domain R366H (UniProt Q9Y3Z3 114-626, R366H); SAMHD1 HD domain R366C (UniProt Q9Y3Z3 114-626, R366C); SAMHD1 HD domain WT (UniProt Q9Y3Z3 114-626).
Assay in all cases: fluorescence polarization; 50 mM Tris-HCl pH 8.0, 50 mM KCl, 1 mM EDTA; 50 nM labeled oligonucleotide; temperature not stated
Common to all, as to conditions: protein: recombinant; chain copies: 2; label: 5'-6-carboxyfluorescein; single strand

Sequence of SAMHD1 HD domain R366C (Q9Y3Z3 114-626 R366C): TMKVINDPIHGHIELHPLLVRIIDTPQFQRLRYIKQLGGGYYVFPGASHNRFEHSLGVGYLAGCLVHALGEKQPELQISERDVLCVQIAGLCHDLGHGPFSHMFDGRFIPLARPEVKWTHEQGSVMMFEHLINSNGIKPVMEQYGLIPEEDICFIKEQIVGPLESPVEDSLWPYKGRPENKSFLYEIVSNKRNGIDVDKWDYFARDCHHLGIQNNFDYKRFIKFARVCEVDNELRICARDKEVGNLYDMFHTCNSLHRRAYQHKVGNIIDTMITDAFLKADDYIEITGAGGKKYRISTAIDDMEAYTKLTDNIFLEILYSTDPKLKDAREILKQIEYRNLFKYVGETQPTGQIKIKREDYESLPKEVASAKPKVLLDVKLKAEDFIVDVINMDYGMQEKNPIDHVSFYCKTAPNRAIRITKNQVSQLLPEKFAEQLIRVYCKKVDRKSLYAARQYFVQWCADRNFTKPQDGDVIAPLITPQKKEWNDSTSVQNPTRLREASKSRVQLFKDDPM
Sequence of SAMHD1 HD domain WT (Q9Y3Z3 114-626): as the sequence (Q9Y3Z3 114-626 R366C) above, with C253R counted along it
Sequence of SAMHD1 HD domain R366H (Q9Y3Z3 114-626 R366H): as the sequence (Q9Y3Z3 114-626 R366C) above, with C253H counted along it

B1: 6FAM-ribo(C*G*C*C*U) (ssRNA)
RNA: CGCCU
modifications: * between all nucleotides (probably phosphorothioate; not defined in the material)
Regarding B1, the Kd was determined as 1120 ± 42 nM with SAMHD1 HD domain R366H, 1450 ± 51 nM in the series with SAMHD1 HD domain R366C and 154 ± 4.2 nM in the series with SAMHD1 HD domain WT.

B2: 6FAM-deoxy(C*G*C*C*T) (ssDNA)
DNA: CGCCT
modifications: * between all nucleotides (probably phosphorothioate; not defined in the material)
Take B2: the Kd in the series with SAMHD1 HD domain R366H was 606 ± 46 nM; with SAMHD1 HD domain R366C it was 689 ± 39 nM; in the series with SAMHD1 HD domain WT, 147 ± 8.3 nM.

As usually defined, the Kd is the equilibrium constant for the complex coming apart.
